± gives the uncertainty stated by the source.
Assay: protein stability index of a GFP-peptide fusion (yeast GPS) (PSI 1-4); higher = more stable; sorted into four equal gates, so the index is relative within each strain
In short: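 Tiled yeast protein peptides of 17 residues were each joined downstream of GFP, on plasmids that also express Cherry. The pooled library was maintained in yeast, and mid-log cultures in leucine-free medium were sorted into four equal gates on the GFP/Cherry ratio. Plasmids from every gate were amplified by PCR and sequenced on Illumina, with barcodes linking reads to strains. The protein stability index of a peptide is its gate-number-weighted read frequency summed over the gates.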

| Sequence | protein stability index (doa10∆) | protein stability index (pdr5∆) | protein stability index (san1∆) | protein stability index (ubr1∆) |
| --- | --- | --- | --- | --- |
| IIHFHSHPEKRMIPPRM [SSN3] | 3.09 ± 0.07 | 2.95 ± 0.067 | 3.06 ± 0.065 | 3.13 ± 0.049 |
| IIKENVKVARLAGKYIP [FAS1] | 1.73 ± 0.23 | 1.6 ± 0.27 |  | 1.82 ± 0.1 |
| IIKQENFNSVNDANITS [SSN2] |  | 1.1 ± 0.11 |  |  |
| IINKVLDYQETYVEELF [YJL039C/NUP192] | 2.2 ± 0.1 | 2.87 ± 0.15 | 2.76 ± 0.12 | 2.6 ± 0.075 |
| IINPHAIPSRMTVAHLI [RPB2] | 1.79 ± 0.054 | 2.06 ± 0.044 | 1.86 ± 0.076 | 2.1 ± 0.046 |
| IIVFGYPESISNELIEH [YDL088C/ASM4] | 2.12 ± 0.066 | 2.78 ± 0.049 | 2.63 ± 0.058 | 2.75 ± 0.054 |
| IKETKENDEEFYKNKYS [RPN2] | 1.34 ± 0.13 | 1.5 ± 0.19 | 1.31 ± 0.26 | 1.51 ± 0.21 |
| IKFFWNNTHVGRQFCNR [YLR018C/POM34] |  | 1.68 ± 0.14 | 1.74 ± 0.27 | 1.9 ± 0.1 |
| IKGSKLSLGEAFKKIDA [COR1] | 3.29 ± 0.28 |  | 2.29 ± 0.16 | 2.64 ± 0.093 |
| IKHSKCRQEFLERVKAN [RPL21A] |  | 3.1 ± 0.23 |  |  |
| IKIVYALTTIKGVGRRY [RPS18A] | 1.87 ± 0.12 | 1.95 ± 0.078 | 2.06 ± 0.17 | 1.61 ± 0.075 |
| IKVPTYIRKLISSGLLY [SRB8] | 1.38 ± 0.048 | 1.27 ± 0.07 | 1.38 ± 0.085 | 1.2 ± 0.067 |
| ILAMTYSENGKHDSLRY [RPN1] | 3.28 ± 0.23 |  | 2.73 ± 0.2 | 2.62 ± 0.29 |
| ILCGIQEYLNPVIDTQI [YDL116W/NUP84] |  | 2.12 ± 0.2 | 2.01 ± 0.17 |  |
| ILDGLTVRLVNLFSSTG [SRB2] | 3.1 ± 0.15 | 3.03 ± 0.16 |  |  |
| ILDIVINNPVNLTIHFG [FAS1] | 2.06 ± 0.088 | 2.4 ± 0.078 | 2.5 ± 0.097 | 3.02 ± 0.075 |
| ILECDLLICIGTSLKVA [SIR2] | 2.05 ± 0.081 | 1.59 ± 0.061 | 2.14 ± 0.15 | 1.73 ± 0.05 |
| ILEDFRVIKDFKKLNSK [YMR153W/NUP53] | 3.15 ± 0.11 | 3.32 ± 0.12 | 3.58 ± 0.055 | 3.29 ± 0.063 |
| ILEEKTDLHLPKKEYDD [NSL1] | 1.76 ± 0.057 | 2.39 ± 0.12 | 2.21 ± 0.12 | 2.66 ± 0.061 |
| ILGIAGEDFAVLAGDTR [PRE7] | 3.65 ± 0.22 | 3.2 ± 0.23 | 3.32 ± 0.23 | 3.64 ± 0.076 |
| ILGKNFDSVIVENLTVA [SMC1] | 2.48 ± 0.08 | 2.15 ± 0.083 | 2.11 ± 0.075 | 2.19 ± 0.054 |
| ILKWVQWSRIVLQNVFK [MED1] | 2.98 ± 0.087 | 3.13 ± 0.12 | 3.29 ± 0.067 | 3.07 ± 0.068 |
| ILLAGRFRGKRVVYLKH [RPL6A] | 1.69 ± 0.078 | 2.17 ± 0.061 | 2.04 ± 0.1 | 2.12 ± 0.056 |
| ILNAKYTKETYQSRGID [RPN6] | 2.96 ± 0.062 | 3.04 ± 0.066 | 2.97 ± 0.06 | 2.8 ± 0.056 |
| ILNHIGQLTGIYRYKYK [PRP8] | 1.39 ± 0.072 | 1.47 ± 0.075 | 1.26 ± 0.11 | 2.03 ± 0.068 |
| ILPTDGSAEFNVKYRAV [RPB7] | 2.57 ± 0.2 |  | 3.08 ± 0.13 | 3.48 ± 0.22 |
| ILSSLYLLSIWVKKFKW [CYT1] | 2.22 ± 0.091 | 1.5 ± 0.069 | 1.77 ± 0.089 | 1.3 ± 0.055 |
| ILSSVNRTVLLKIFKIF [SRB8] | 1.37 ± 0.083 | 1.42 ± 0.14 | 1.17 ± 0.16 | 1.13 ± 0.093 |

| Sequence | protein stability index (doa10∆) | protein stability index (pdr5∆) | protein stability index (san1∆) | protein stability index (ubr1∆) |
| --- | --- | --- | --- | --- |
| ILSTTLDPTDDEGHVLK [SIN4] | 2.58 ± 0.15 | 2.64 ± 0.11 | 3.01 ± 0.14 | 3 ± 0.12 |
| ILTDLVNYRHFKAMEDV [ITC1] | 2.94 ± 0.14 | 2.98 ± 0.11 | 3.28 ± 0.068 | 3.39 ± 0.063 |
| ILTEHLGYPPISLVDDI [MTW1] | 2.36 ± 0.054 | 2.17 ± 0.047 | 2.22 ± 0.071 | 2.11 ± 0.042 |
| ILTSKVNAIKNEVKEWA [DSN1] | 2.64 ± 0.09 | 2.66 ± 0.094 | 3.07 ± 0.072 | 2.82 ± 0.08 |
| ILYEIRALYTPFLLMEL [YDL116W/NUP84] | 2.66 ± 0.081 | 2.93 ± 0.064 | 2.79 ± 0.066 | 3.02 ± 0.062 |
| ILYYDVLFITPDIVGHE [BRR2] | 2.29 ± 0.058 | 2.49 ± 0.052 | 2.61 ± 0.053 | 2.84 ± 0.057 |
| IMERIKSSLSLRDHALS [ITC1] | 2.24 ± 0.12 | 2.53 ± 0.053 | 2.7 ± 0.18 | 2.65 ± 0.06 |
| IMKFQSLSDNDLAVCAT [ECM29] | 2.03 ± 0.076 | 2.46 ± 0.067 | 2.69 ± 0.062 | 2.77 ± 0.064 |
| IMVLDASIGQAAEQQSK [SRP54] |  | 2.78 ± 0.29 | 3.18 ± 0.1 | 2.97 ± 0.13 |
| INDAGKAKKLIQSLPPT [RPL38] | 2.17 ± 0.047 | 2.38 ± 0.042 | 1.96 ± 0.059 | 2.56 ± 0.03 |
| INDFKKIGRENENENED [POP5] |  | 3.38 ± 0.22 | 2.76 ± 0.19 | 2.49 ± 0.27 |
| INDIRDDDIEKQEQEEK [YCG1] | 2.96 ± 0.082 | 2.79 ± 0.07 | 2.94 ± 0.055 | 3.12 ± 0.055 |
| INLAMNESSLALEFVSL [SRB4] | 1.44 ± 0.088 | 1.41 ± 0.074 | 1.81 ± 0.12 | 1.92 ± 0.064 |
| INNLPPEKEASSATIVL [YCG1] | 2.55 ± 0.16 | 2.88 ± 0.14 | 2.29 ± 0.19 | 2.52 ± 0.073 |
| INQKALRKIQALRDVKN [GAL11] |  | 1.26 ± 0.25 |  |  |
| INSDNQNIILRSTMMKF [RPN3] | 2.82 ± 0.092 | 2.81 ± 0.086 | 2.77 ± 0.11 | 2.9 ± 0.059 |
| INVETVYDIMALEDEER [BRR2] | 2.99 ± 0.092 | 2.8 ± 0.081 | 2.73 ± 0.066 | 2.79 ± 0.067 |
| INVLTDQNPIQVVVDAI [RPS5] | 2.19 ± 0.044 | 2.59 ± 0.038 | 2.44 ± 0.055 | 2.05 ± 0.031 |
| IPFPDHNQSPRNTYQSA [RPB2] | 2.97 ± 0.083 | 3.06 ± 0.067 | 3.22 ± 0.056 | 2.78 ± 0.063 |
| IPFQTLYRSIESGEFDF [YJL039C/NUP192] | 1.95 ± 0.061 | 2.27 ± 0.062 | 2.11 ± 0.1 | 1.99 ± 0.032 |
| IPHFIDNNSSLNVSNTK [PRP8] | 2.36 ± 0.08 | 2.42 ± 0.069 | 2.66 ± 0.053 | 2.51 ± 0.06 |
| IPIAIVLKACGILSDLE [RET1] | 1.4 ± 0.057 | 1.43 ± 0.061 | 1.36 ± 0.096 | 2.02 ± 0.053 |
| IPLDNYDDFIYLSDLKQ [PCI8] | 2.11 ± 0.12 | 2.04 ± 0.14 | 1.77 ± 0.25 | 2.62 ± 0.12 |
| IPPDQQRLIFAGKQLED [RPS31] | 2.92 ± 0.077 | 2.73 ± 0.06 | 3.18 ± 0.038 | 3.16 ± 0.035 |
| IQKESTLHLVLRLRGGI [RPL40A] | 2.48 ± 0.11 | 2.6 ± 0.071 | 2.35 ± 0.1 | 2.54 ± 0.058 |
| IQMNNSLQNNLQNNINN [SNF11] | 3.35 ± 0.093 | 3.32 ± 0.088 | 3.06 ± 0.087 | 3.31 ± 0.064 |
| IQRFFALHYLVPFIIAA [COB] | 1.39 ± 0.052 | 1.17 ± 0.063 | 1.11 ± 0.15 | 1.09 ± 0.036 |

— the supplement of paper PMC9732359
